Molecular target: T1, protein kinase A (Bos taurus, UniProt P00517)
T1 construct: purchased Sigma P26452 as printed
Test: Incubation of modified glass surface (960 spots) with protein kinase A (FIG. 7, Example 27)
Assay type: biochemical
Conditions: aldehyde-functionalised glass, amino-oxy linkage, protein kinase A 10 U/mL, 30 min at 25° C.
Procedure: FIG. 7. A glass surface modified with the peptide Dpr(Aoa)-Leu-Arg-Arg-Ala-Ser-Leu-Gly-NH2 (see Example 22) was first pre-incubated for 10 minutes using 10 ml of 100 μM ATP solution in 50 mM of sodium phosphate buffer pH 7.5. […] After incubation for 30 min at 25° C. the phosphorylation of the corresponding peptides was detected using a FUJIFILM PhosphorImager (see Example 14). […] It is furthermore clear that the resolution of the PhosphorImager used here is sufficient to analyse more than 950 measurement points per biochip.
A glass surface modified with the peptide Dpr(Aoa)-Leu-Arg-Arg-Ala-Ser-Leu-Gly-NH2 (see Example 22) was incubated with 10 mL of 100 μM ATP in kinase buffer (50 mM tris-HCl, 150 mM NaCl, 30 mM MgCl2, 4 mM DTT, 2 mM EGTA, pH 7.5) for 10 minutes at room temperature. The glass surface was dried and a second unmodified glass surface of the same dimensions was then placed on the peptide-modified glass surface. […] Incubation was then carried out for 30 min at room temperature in an almost water-saturated atmosphere. […]
After drying the glass surface the quantity of radioactive phosphate incorporated in the glass-surface-bound peptides was determined using a PhosphorImager system (FLA-3000, FUJIFILM) (see FIG. 7).

With “Dpr(Aoa)-Leu-Arg-Arg-Ala-Ser-Leu-Gly-NH2 ({Dpr(Aoa)}-LRRASLG-NH2)” the “linking of the immobilised kinase substrate tolerated by protein kinase A” value was “tolerated by the protein kinase A”.

Source: patent publication US8029979B2, “Method for determining the substrate specificity of an enzyme” (JPT Peptide Technologies GmbH, priority 2001, dated 2011)
